Source: IntAct's records for PubMed 25096571

B1: Forkhead box protein P3 (Homo sapiens), Q9BZS1-1 (parent)
chain: MPNPRPGKPSAPSLALGPSPGASPSWRAAPKASDLLGARGPGGTFQGRDLRGGAHASSSSLNPMPPSQLQLPTLPLVMVAPSGARLGPLPHLQALLQDRPHFMHQLSTVDAHARTPVLQVHPLESPAMISLTPPTTATGVFSLKARPGLPPGINVASLEWVSREPALLCTFPNPSAPRKDSTLSAVPQSSYPLLANGVCKWPGCEKVFEEPEDFLKHCQADHLLDEKGRAQCLLQREMVQSLEQQLVLEKEKLSAMQAHLAGKMALTKASSVASSDKGSCCIVAAGSQGPVVPAWSGPREAPDSLFAVRRHLWGSHGNSTFPEFLHNMDYFKFHNMRPPFTYATLIRWAILEAPEKQRTLNEIYHWFTRMFAFFRNHPATWKNAIRHNLSLHKCFVRVESEKGAVWTVDELEFRKKRSQRPSRCSNPTPGP

Variants of: B1
Details: with PIM1, P11309-1

effect of a mutation on the interaction | Variant
decreasing interaction strength | MPNPRPGKPSAPSLALGPSPGASPSWRAAPKASDLLGARGPGGTFQGRDLRGGAHASSSSLNPMPPSQLQLPTLPLVMVAPSGARLGPLPHLQALLQDRPHFMHQLSTVDAHARTPVLQVHPLESPAMISLTPPTTATGVFSLKARPGLPPGINVASLEWVSREPALLCTFPNPSAPRKDSTLSAVPQSSYPLLANGVCKWPGCEKVFEEPEDFLKHCQADHLLDEKGRAQCLLQREMVQSLEQQLVLEKEKLSAMQAHLAGKMALTKASSVASSDKGSCCIVAAGSQGPVVPAWSGPREAPDSLFAVRRHLWGSHGNSTFPEFLHNMDYFKFHNMRPPFTYATLIRWAILEAPEKQRTLNEIYHWFTRMFAFFRNHPATWKNAIRHNLSLHKCFVRVESEKGAVWTVDELEFRKKRSQRPARCSNPTPGP [S422A]

Variants of: B1
Details: with PIM1, P11309-1
Remark: another data set of the same source

effect of a mutation on the interaction | Variant
increasing interaction strength | MPNPRPGKPSAPSLALGPSPGASPSWRAAPKASDLLGARGPGGTFQGRDLRGGAHASSSSLNPMPPSQLQLPTLPLVMVAPSGARLGPLPHLQALLQDRPHFMHQLSTVDAHARTPVLQVHPLESPAMISLTPPTTATGVFSLKARPGLPPGINVASLEWVSREPALLCTFPNPSAPRKDSTLSAVPQSSYPLLANGVCKWPGCEKVFEEPEDFLKHCQADHLLDEKGRAQCLLQREMVQSLEQQLVLEKEKLSAMQAHLAGKMALTKASSVASSDKGSCCIVAAGSQGPVVPAWSGPREAPDSLFAVRRHLWGSHGNSTFPEFLHNMDYFKFHNMRPPFTYATLIRWAILEAPEKQRTLNEIYHWFTRMFAFFRNHPATWKNAIRHNLSLHKCFVRVESEKGAVWTVDELEFRKKRCQRPSRCSNPTPGP [S418C]
increasing interaction strength | MPNPRPGKPSAPSLALGPSPGASPSWRAAPKASDLLGARGPGGTFQGRDLRGGAHASSSSLNPMPPSQLQLPTLPLVMVAPSGARLGPLPHLQALLQDRPHFMHQLSTVDAHARTPVLQVHPLESPAMISLTPPTTATGVFSLKARPGLPPGINVASLEWVSREPALLCTFPNPSAPRKDSTLSAVPQSSYPLLANGVCKWPGCEKVFEEPEDFLKHCQADHLLDEKGRAQCLLQREMVQSLEQQLVLEKEKLSAMQAHLAGKMALTKASSVASSDKGSCCIVAAGSQGPVVPAWSGPREAPDSLFAVRRHLWGSHGNSTFPEFLHNMDYFKFHNMRPPFTYATLIRWAILEAPEKQRTLNEIYHWFTRMFAFFRNHPATWKNAIRHNLSLHKCFVRVESEKGAVWTVDELEFRKKRGQRPSRCSNPTPGP [S418G]
decreasing interaction strength | MPNPRPGKPSAPSLALGPSPGASPSWRAAPKASDLLGARGPGGTFQGRDLRGGAHASSSSLNPMPPSQLQLPTLPLVMVAPSGARLGPLPHLQALLQDRPHFMHQLSTVDAHARTPVLQVHPLESPAMISLTPPTTATGVFSLKARPGLPPGINVASLEWVSREPALLCTFPNPSAPRKDSTLSAVPQSSYPLLANGVCKWPGCEKVFEEPEDFLKHCQADHLLDEKGRAQCLLQREMVQSLEQQLVLEKEKLSAMQAHLAGKMALTKASSVASSDKGSCCIVAAGSQGPVVPAWSGPREAPDSLFAVRRHLWGSHGNSTFPEFLHNMDYFKFHNMRPPFTYATLIRWAILEAPEKQRTLNEIYHWFTRMFAFFRNHPATWKNAIRHNLSLHKCFVRVESEKGAVWTVDELEFRKKRAQRPSRCSNPTPGP [S418A]
disrupting interaction strength | MPNPRPGKPSAPSLALGPSPGASPSWRAAPKASDLLGARGPGGTFQGRDLRGGAHASSSSLNPMPPSQLQLPTLPLVMVAPSGARLGPLPHLQALLQDRPHFMHQLSTVDAHARTPVLQVHPLESPAMISLTPPTTATGVFSLKARPGLPPGINVASLEWVSREPALLCTFPNPSAPRKDSTLSAVPQSSYPLLANGVCKWPGCEKVFEEPEDFLKHCQADHLLDEKGRAQCLLQREMVQSLEQQLVLEKEKLSAMQAHLAGKMALTKASSVASSDKGSCCIVAAGSQGPVVPAWSGPREAPDSLFAVRRHLWGSHGNSTFPEFLHNMDYFKFHNMRPPFTYATLIRWAILEAPEKQRTLNEIYHWFTRMFAFFRNHPATWKNAIRHNLSLHKCFVRVESEKGAVWTVDELEFRKKRDQRPSRCSNPTPGP [S418D]
